These results are taken from patent US20250145695A1 (AC IMMUNE, published 2025).

“And” between values parts separate entries of the source, which are not always exact repeats. Equal values may be shown once.

One test addresses T1, soluble TDP-43 (human, UniProt Q13148 1-414).
T1 construct: also called soluble full-length TDP-43; FL TDP-43
The test can be described thus: SPR Biacore 8K, soluble TDP-43 immobilized on CM5, mAb injected, single-cycle kinetics. The method, then: The instrument was primed with running buffer PBS-P+ and flow cells (Fc) 1 and 2 of channels 1-8 were activated with a fresh solution of EDC/NHS (Amine Coupling Kit, 1:1 ratio of both reagents, GE Healthcare Life Sciences, BR-1006-33) at 10 μL/min for 420 sec. Soluble TDP-43 (Selvita) was diluted in sodium acetate pH 4.5 to a final concentration of 5 μg/mL and injected for 900 sec with a flow rate of 5 μL/min on Fc 2. All flow cells were quenched with 1 M ethanol amine (GE Healthcare Life Sciences, BR-1006-33), at 10 μL/min for 420 sec. Immobilization levels after ethanolamine quenching were 680 RU on all eight channels. Prior to analysis, two Startup cycles were run. Increasing mAbs concentrations were injected in single-cycle kinetics ranging from 1.2 to 100 nM, prepared from a 3-fold serial dilution in running buffer, with a contact time of 300 sec and a dissociation time of 3600 sec at a flow rate of 30 μL/min. Each cycle was followed by one regeneration using 10 mM Glycine-HCl pH 1.7 with a contact time of 30 sec at 30 μL/min, followed by a stabilization period of 300 sec. Results obtained from single-cycle kinetics were double-referenced using the blank Fc 1 and buffer cycles and evaluated using Biacore 8K evaluation software using the 1:1 kinetic fit model with RI and global Rmax. The following kinetic parameters were obtained: association rate constant (ka), dissociation rate constant (kd), affinity constant (KD) and saturation response (Rmax).

For another test, the target named is T2, TP-51 peptide (human).
T2 construct: Synthetic peptide from Pepscan; also called synthetic TDP-43 peptide (TP-51)
T2 peptide: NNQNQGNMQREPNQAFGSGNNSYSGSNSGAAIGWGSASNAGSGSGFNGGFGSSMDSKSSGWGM
The test can be described thus: SPR Biacore 8K, mAb captured by anti-human antibody, TP-51 injected, single-cycle kinetics. On the procedure:
The instrument was primed with running buffer PBS-P+. Fc 1-2 of channels 1-8 (8K) were activated with a fresh solution of EDC/NHS (Amine Coupling Kit, 1:1 ratio of both reagents, GE Healthcare Life Sciences, BR-1006-33) at 10 μL/min for 420 sec and goat anti-human antibody (GE Healthcare Life Sciences, 29234600) was immobilized at 25 μg/mL in 10 mM sodium acetate pH 5 for 420 sec. Next, all Fc were quenched with 1 M ethanol amine (GE Healthcare Life Sciences, BR-1006-33), for 420 sec. Any non-covalently bound antibodies were removed by two regenerations with 10 mM Glycine-HCl pH 1.7 for 30 sec. Immobilization levels were evaluated following ethanolamine quenching (10000 RU for all channels).
Each cycle started with non-covalent capture of humanized variants which were diluted in running buffer to a final concentration of 2 μg/mL and injected for 60 sec with a flow rate of 10 μL/min. TDP-43 mAbs were captured on channels 1-8, leaving Fc 1 as a blank Fc. Capture levels were evaluated following a 120 sec stabilization period after each mAb injection and ranged from 300-500 RU.
TP-51 consists of amino acids 352-414 of TDP-43 (SEQ ID NO: 1). Injections of TP-51 peptide (Pepscan) were performed in single-cycle kinetics with increasing concentrations ranging from 1.2-100 nM prepared from serial 3-fold dilutions. Injections were performed with contact times of 300 sec/injection at a flow rate of 25 μL/min. A dissociation phase of 3600 sec followed the final injection. Sensor surface was regenerated by one injection of 10 mM Glycine-HCl pH 1.7 at a flow rate of 10 μL/min for 120 sec, followed by a stabilization period of 300 sec. Results obtained from single-cycle kinetics were double-referenced using the blank Fc 1 and buffer cycles and evaluated by Biacore 8K evaluation software with 1:1 kinetic fit model with RI and global Rmax. The following kinetic parameters were obtained: association rate constant (ka), dissociation rate constant (kd), affinity constant (KD) and saturation response (Rmax).

Test [1] has as its target T3, human TDP-43 in CSF of a healthy donor (human, UniProt Q13148 1-414, limits assumed).
T3 construct: also called TDP-43 in human CSF
In words: SIMOA-based target engagement assay, unbound TDP-43 in human CSF pre-incubated with increasing antibody.

T1 sequence (Q13148 whole entry): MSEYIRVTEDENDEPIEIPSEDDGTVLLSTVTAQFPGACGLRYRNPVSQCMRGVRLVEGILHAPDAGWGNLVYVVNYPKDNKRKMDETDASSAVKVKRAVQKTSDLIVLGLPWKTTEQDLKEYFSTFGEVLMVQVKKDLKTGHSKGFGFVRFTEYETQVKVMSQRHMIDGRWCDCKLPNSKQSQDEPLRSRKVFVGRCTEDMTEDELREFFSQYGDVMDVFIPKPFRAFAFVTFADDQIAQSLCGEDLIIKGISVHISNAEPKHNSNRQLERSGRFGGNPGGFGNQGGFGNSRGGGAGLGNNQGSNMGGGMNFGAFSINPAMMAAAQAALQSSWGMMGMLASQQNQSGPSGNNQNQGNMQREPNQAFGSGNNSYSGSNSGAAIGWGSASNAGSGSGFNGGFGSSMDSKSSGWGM

B1: ACI-7069-633B12-Ab1 (antibody, V domains shown)
VH: EVQLQQSGPELVKPGASVKISCKTSGFTFTEYSMHWVKQSHGKSLEWIGGINPNNGGTSYNQKFKGKATLTVDKSSSTAYMELRSLTSEDSAVYYCARESWGQGTTLTVSS
VL: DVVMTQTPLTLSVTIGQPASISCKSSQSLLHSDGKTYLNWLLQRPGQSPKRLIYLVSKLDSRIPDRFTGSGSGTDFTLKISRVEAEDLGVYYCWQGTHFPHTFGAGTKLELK
notes: also called murine parental antibody
As usually defined, the Kd is the concentration at which binding is half-saturated. One may read the koff as the first-order rate constant of dissociation. A higher koff goes with a short-lived complex. For orientation: kon means the rate constant with which the complex forms. Take B1: in the test with soluble TDP-43, the affinity, expressed as Kd, was 328 pM; the dissociation rate constant (koff) was 1.7e-05 s⁻¹; the kon came out at 55000 M⁻¹ s⁻¹. Further, in the test with TP-51 peptide, the affinity, expressed as Kd, was 1500 pM; the koff came out at 9.8e-05 s⁻¹; the kon was 67000 M⁻¹ s⁻¹.

B2: hACI-7069-633B12-Ab1_H33L24 (antibody, V domains shown)
VH: EVQLVQSGAEVKKPGATVKISCKVSGFTFTEYSMHWVQQAPGKGLEWMGGINPNNGGTSYNQKFQGRVTITADTSTDTAYMELSSLRSEDTAVYYCARESWGQGTTVTVSS
VL: DIVMTQSPLSLPVTPGEPASISCKSSQSLLHSDGKTYLNWLLQKPGQSPQRLIYLVSKLDSRVPDRFSGSGSGTDFTLKISRVEAEDVGVYYCWQGTHFPHTFGQGTKLEIK
Take B2: in the test with soluble TDP-43, the Kd came to 471 pM, the koff amounted to 1.3e-05 s⁻¹ and the kon worked out at 30000 M⁻¹ s⁻¹. Moreover, in the test with TP-51 peptide, the Kd is 2200 pM, the koff amounted to 0.00015 s⁻¹ and the association rate constant (kon) turned out to be 70000 M⁻¹ s⁻¹.

B3: hACI-7069-633B12-Ab1_H32L24 (antibody, V domains shown)
VH: EVQLVQSGAEVKKPGATVKISCKVSGFTFTEYSMHWVQQAPGKGLEWMGGINPQNAGTSYNQKFQGRVTITADTSTDTAYMELSSLRSEDTAVYYCARESWGQGTTVTVSS
VL: DIVMTQSPLSLPVTPGEPASISCKSSQSLLHSDGKTYLNWLLQKPGQSPQRLIYLVSKLDSRVPDRFSGSGSGTDFTLKISRVEAEDVGVYYCWQGTHFPHTFGQGTKLEIK
Regarding B3, in the test with soluble TDP-43, binding was characterised by a dissociation constant (Kd) of 716 pM, the koff stood at 1.5e-05 s⁻¹ and the kon worked out at 24000 M⁻¹ s⁻¹. Besides, in the test with TP-51 peptide, binding was put at a Kd of 2000 pM, the koff worked out at 0.00012 s⁻¹ and the association rate constant (kon) turned out to be 64000 M⁻¹ s⁻¹.

B4: hACI-7069-633B12-Ab1_H33L27 (antibody, V domains shown)
VH: EVQLVQSGAEVKKPGATVKISCKVSGFTFTEYSMHWVQQAPGKGLEWMGGINPNNGGTSYNQKFQGRVTITADTSTDTAYMELSSLRSEDTAVYYCARESWGQGTTVTVSS
VL: DIVMTQSPLSLPVTPGEPASISCKSSQSLLHSDGKTYLNWLLQKPGQSPQRLIYLVSKLDSRVPDRFSGSGSGTDFTLKISRVEAEDVGVYYCFQGTHFPHTFGQGTKLEIK
Usually EC50 stands for the concentration that produces a half-maximal response. A higher EC50 goes with lower potency in that assay. For B4, in the test with soluble TDP-43, the Kd is 126 pM, the koff amounted to 6.5e-06 s⁻¹ and the kon amounted to 52000 M⁻¹ s⁻¹. In addition, in the test with TP-51 peptide, binding was characterised by a dissociation constant (Kd) of 800 pM, the koff was 0.00012 s⁻¹ and the kon is 150000 M⁻¹ s⁻¹. Moreover, the EC50 in test [1] is 0.0356 µg/mL and 0.237 nM.

B5: hACI-7069-633B12-Ab1_H28L23 (antibody, V domains shown)
VH: EVQLVQSGAEVKKPGATVKISCKVSGFTFTEYSMHWVQQAPGKGLEWMGGINPNNGGTSYNQKFKGRVTITADTSTDTAYMELSSLRSEDTAVYYCARESWGQGTTVTVSS
VL: DVVMTQSPLSLPVTPGEPASISCKSSQSLLHSDGKTYLNWLLQKPGQSPQRLIYLVSKLDSRVPDRFSGSGSGTDFTLKISRVEAEDVGVYYCWQGTHFPHTFGQGTKLEIK
For B5, in the test with soluble TDP-43, the affinity, expressed as Kd, was 806 pM; the koff stood at 2.6e-05 s⁻¹; the kon is 32000 M⁻¹ s⁻¹. Besides, in the test with TP-51 peptide, the Kd came out at 1900 pM, the koff amounted to 0.00013 s⁻¹ and the kon came to 65000 M⁻¹ s⁻¹.

B6: hACI-7069-633B12-Ab1_H27L23 (antibody, V domains shown)
VH: EVQLVQSGAEVKKPGATVKISCKVSGFTFTEYSMHWVQQAPGKGLEWMGGINPNNGGTSYNQKFKGRVTITVDTSTDTAYMELSSLRSEDTAVYYCARESWGQGTTVTVSS
VL: DVVMTQSPLSLPVTPGEPASISCKSSQSLLHSDGKTYLNWLLQKPGQSPQRLIYLVSKLDSRVPDRFSGSGSGTDFTLKISRVEAEDVGVYYCWQGTHFPHTFGQGTKLEIK
For the molecule B6, in the test with soluble TDP-43, binding was put at a Kd of 925 pM, the koff came out at 2.2e-05 s⁻¹ and the kon was determined as 24000 M⁻¹ s⁻¹. Further, in the test with TP-51 peptide, the Kd was determined as 3300 pM, the koff was 0.00014 s⁻¹ and the on-rate constant (kon) was found to be 42000 M⁻¹ s⁻¹.

B7: hACI-7069-633B12-Ab1_H32L27 (antibody, V domains shown)
VH: EVQLVQSGAEVKKPGATVKISCKVSGFTFTEYSMHWVQQAPGKGLEWMGGINPQNAGTSYNQKFQGRVTITADTSTDTAYMELSSLRSEDTAVYYCARESWGQGTTVTVSS
VL: DIVMTQSPLSLPVTPGEPASISCKSSQSLLHSDGKTYLNWLLQKPGQSPQRLIYLVSKLDSRVPDRFSGSGSGTDFTLKISRVEAEDVGVYYCFQGTHFPHTFGQGTKLEIK
For B7, in the test with soluble TDP-43, the Kd is 143 pM, the koff was found to be 5.2e-06 s⁻¹ and the kon stood at 36000 M⁻¹ s⁻¹. Also, in the test with TP-51 peptide, binding was characterised by a dissociation constant (Kd) of 1000 pM, the koff was determined as 0.00012 s⁻¹ and the kon stood at 120000 M⁻¹ s⁻¹.

B8: hACI-7069-633B12-Ab1_H28L24 (antibody, V domains shown)
VH: EVQLVQSGAEVKKPGATVKISCKVSGFTFTEYSMHWVQQAPGKGLEWMGGINPNNGGTSYNQKFKGRVTITADTSTDTAYMELSSLRSEDTAVYYCARESWGQGTTVTVSS
VL: DIVMTQSPLSLPVTPGEPASISCKSSQSLLHSDGKTYLNWLLQKPGQSPQRLIYLVSKLDSRVPDRFSGSGSGTDFTLKISRVEAEDVGVYYCWQGTHFPHTFGQGTKLEIK
Turning to B8, in the test with soluble TDP-43, binding was characterised by a dissociation constant (Kd) of 531 pM, the off-rate (koff) was found to be 1.7e-05 s⁻¹ and the kon came to 37000 M⁻¹ s⁻¹. In the test with TP-51 peptide, this molecule had a dissociation constant (Kd) of 2000 pM, a koff of 0.00013 s⁻¹ and a kon of 66000 M⁻¹ s⁻¹.

B9: hACI-7069-633B12-Ab1_H32L26 (antibody, V domains shown)
VH: EVQLVQSGAEVKKPGATVKISCKVSGFTFTEYSMHWVQQAPGKGLEWMGGINPQNAGTSYNQKFQGRVTITADTSTDTAYMELSSLRSEDTAVYYCARESWGQGTTVTVSS
VL: DIVMTQSPLSLPVTPGEPASISCKSSQSLLHSDAKTYLNWLLQKPGQSPQRLIYLVSKLDSRVPDRFSGSGSGTDFTLKISRVEAEDVGVYYCFQGTHFPHTFGQGTKLEIK
In the case of B9, in the test with soluble TDP-43, the Kd was 563 pM, the koff was 1.7e-05 s⁻¹ and the association rate constant (kon) came to 33000 M⁻¹ s⁻¹. In the test with TP-51 peptide, this molecule had a Kd of 1400 pM, a koff of 0.00016 s⁻¹ and a kon of 120000 M⁻¹ s⁻¹.

B10: hACI-7069-633B12-Ab1_H28L22 (antibody, V domains shown)
VH: EVQLVQSGAEVKKPGATVKISCKVSGFTFTEYSMHWVQQAPGKGLEWMGGINPNNGGTSYNQKFKGRVTITADTSTDTAYMELSSLRSEDTAVYYCARESWGQGTTVTVSS
VL: DIVMTQSPLSLPVTPGEPASISCKSSQSLLHSDGKTYLNWLLQKPGQSPKRLIYLVSKLDSRVPDRFSGSGSGTDFTLKISRVEAEDVGVYYCWQGTHFPHTFGQGTKLEIK
In the test with soluble TDP-43, B10 returned a Kd of 1160 pM, a koff of 3.4e-05 s⁻¹ and a kon of 29000 M⁻¹ s⁻¹. In the test with TP-51 peptide, this molecule showed a dissociation constant Kd of 3500 pM, a koff of 0.0002 s⁻¹ and an on-rate (kon) of 58000 M⁻¹ s⁻¹.

B11: hACI-7069-633B12-Ab1_H33L26 (antibody, V domains shown)
VH: EVQLVQSGAEVKKPGATVKISCKVSGFTFTEYSMHWVQQAPGKGLEWMGGINPNNGGTSYNQKFQGRVTITADTSTDTAYMELSSLRSEDTAVYYCARESWGQGTTVTVSS
VL: DIVMTQSPLSLPVTPGEPASISCKSSQSLLHSDAKTYLNWLLQKPGQSPQRLIYLVSKLDSRVPDRFSGSGSGTDFTLKISRVEAEDVGVYYCFQGTHFPHTFGQGTKLEIK
As to B11, in the test with soluble TDP-43, the Kd was determined as 220 pM, the koff was determined as 9e-06 s⁻¹ and the kon was found to be 43000 M⁻¹ s⁻¹. Moreover, in the test with TP-51 peptide, the equilibrium dissociation constant (Kd) was 1600 pM, the koff amounted to 0.00029 s⁻¹ and the kon turned out to be 160000 M⁻¹ s⁻¹.
